# B1: HC_A32Y (antibody, V domains shown)
# VH: EVQLLESGGGLVQPGGSLRLSCAASGFTFSNYWMSWVRQAPGKGLEWVSYISSSGSTIYYADSVKGRFTISRDNSKNTLYLQMNSLRAEDTAVYYCAREGLWAFDYWGQGTLVTVTS
# VL: QSVLTQPPSASGTPGQRVTISCTGSSSNIGAGYVVHWYQQLPGTAPKLLIYDNNKRPSGVPDRFSGSKSGTSASLAISGLRSEDEADYYCAAWDDRLNGPVFGGGTKLTVLGQ
# Tests used:
# [1] = system: rivaroxaban (FXa activity); assay: FXa de-inhibition assay (FXa DIA) of Fab variants; format: biochemical; set-up: key: ++: Variants with an average ratio above wt plus 2×SD were considered as improved; −−: variants with a ratio below wt minus 2×SD were considered as either reduced in their binding affinity or non-binding; +/−: All variants with a performance in between both thresholds; settings: Table 11: single and double amino acid substitutions within M18-G08; FXa deinhibition assay; variant/wt ratio, 2-3 independent experiments
# Protocol: Then, 7 μl of 28 nM FXa (Haematologic Technologies Inc., HCXA-0060) diluted in assay buffer (20 mM Tris, Merck 1.08382.2500; 100 mM NaCl, Merck 1.06404.5000; 2.5 mM CaCl2*2H2O, Merck 1.02382.1000; 0.1% bovine serum albumin, Sigma A4503; 0.1% PEG 8000, Sigma P2139) were added and enzyme activity was recorded over time by measuring the fluorescence signal at 440 nm using a micro plate reader e.g. Tecan Infinite F500. The fluorescence signal was integrated over time and ratios of variant to wild-type were compared.
# Provided in Table 9 are several examples of single and/or double amino acid substitutions introduced into the heavy and/or the light chain of M14-G07 (wt). Performance of the variants was analyzed in quadruples in the ELISA without a competition step and the FXa deinhibition assay (FXa DIA). In the ELISA, averages were calculated and normalized to the respective average expression level. Overall performance of variants was evaluated by comparing the variant to wt ratio from 2-3 independent experiments. […] Variants with average fluorescence counts below the negative control (non-expressing cells) plus 3×SD were considered as non-binding and marked with “−−” with none of the variants fulfilling this criteria. In the FXa deinhibition assay averages were calculated and overall performance of variants was evaluated by comparing the variant to wt ratio from 2-3 independent experiments. […]
# [2] = ELISA-based activity assay of antibody variants with a competition step (300 nM rivaroxaban); format: binding; set-up: key: ++: Variants with an average ratio above wt plus 2×SD (standard deviation of the ratio) were considered as improved; −: variants with a ratio below wt minus 2×SD were considered as reduced in their binding affinity; +/−: All variants with a performance in between both thresholds; −−: Variants with average fluorescence counts below the negative control (non-expressing cells) plus 3×SD were considered as non-binding; settings: Table 11: single and double amino acid substitutions within M18-G08, variant to wt ratio, 1-3 independent experiments
# Protocol: To determine the activity of the mutated antibody variants on compound from Example 1K an equilibrium or dissociation limited ELISA assay format was used. Briefly, MTP plates (Nunc Maxisorp black, 460518) were coated with 4 μg/ml streptavidin (Calbiochem, 189730) diluted in coating buffer (Candor Bioscience GmbH, 121500) and incubated over night at 4° C. After washing with PBST, plates were blocked with 100% Smart Block (Candor Bioscience GmbH, 113500) in PBST for 1 h at room temperature and the washing step was repeated. […] After washing 10 μM Amplex Red (Invitrogen, A12222) were added and incubated for 10 to 30 min at room temperature followed by measurement of the fluorescence signal.
# Provided in table 11 are several examples of single and/or double amino acid substitutions introduced into the heavy and/or the light chain of M18-G08 (wt). Performance of the variants was analyzed in quadruples in the ELISA with a competition step and the FXa deinhibition assay (FXa DIA). In the ELISA, averages were calculated and overall performance of variants was evaluated by comparing the variant to wt ratio from 1-3 independent experiments. […] Variants with average fluorescence counts below the negative control (non-expressing cells) plus 3×SD were considered as non-binding and marked with “−−”. […] Variants not analyzed are marked with “nd” (not determined). […]
molecule,measurement,setting,value
B1,FXa-DIA,[1],++
same,ELISA,[2],++
